From patent KR20160022857A (dated 2016) come the findings set out here.

In experiment [1] the target is T1, HER2-ECD-His 단백질 (human, UniProt P04626 23-652).
T1 construct: extracellular domain; Origin and limits of the construct are not described; not shown: His tag
Description: SPR (Biacore 3000); HER2-ECD-His amine-coupled on CM5; periplasmic extract as analyte. For orientation: Surface plasmon resonance follows binding to a sensor surface in real time, without labels.

Experiment [2] concerns the target T1, HER2-ECD-His 단백질. The experiment can be described thus: SPR; IgG captured on goat anti-human IgG; HER2-ECD-His as analyte.

B1: M1-L-A1-3-1C3 (hz1E11-3), periplasmic extract (antibody, V domains shown)
VH: EVQLVESGGGLVQPGGSLRLSCAASGFTFSSYTMSWVRQAPGKGLEWVAYISNGGGSTYYPDTVKGRFTISRDNAKNSLYLQMNSLRAEDTAVYYCARHLGGTASFDYWGQGTLVTVSS
VL: DIQMTQSPSSLSASVGDRVTITCLASQTIGTWLAWYQQKPGKAPKLLIYVATSLADGVPSRFSGSGSGTDFTLTISSLQPEDFATYYCDQMYSTPWTFGQGTKVEIK
notes: Clone as expressed in bacteria, periplasmic extract; LCDR3 DQMYSTPWT
As for B1, the “koff 감소 정도 (Fold) vs hz1E11” value with HER2-ECD-His 단백질 [1] was 7.4 fold.

B2: M3-LH-A1-1-1H1 (antibody, V domains shown)
VH: EVQLVESGGGLVQPGGSLRLSCAASGFTFSSYTMSWVRQAPGKGLEWVAYISNGGGSTYYPDTVKGRFTISRDNAKNSLYLQMNSLRAEDTAVYYCARNYGGTASFDYWGQGTLVTVSS
VL: DIQMTQSPSSLSASVGDRVTITCLASQTIGTWLAWYQQKPGKAPKLLIYVATSLADGVPSRFSGSGSGTDFTLTISSLQPEDFATYYCQQNFIAPWTFGQGTKVEIK
Consider B2, for which the “koff 감소 정도 (Fold) vs hz1E11” value in the experiment with HER2-ECD-His 단백질 [1] turned out to be 0.7 fold.

B3: M3-LH-A1-2-2F4 (antibody, V domains shown)
VH: EVQLVESGGGLVQPGGSLRLSCAASGFTFSSYTMSWVRQAPGKGLEWVAYISNGGGSTYYPDTVKGRFTISRDNAKNSLYLQMNSLRAEDTAVYYCARNLGGTASFDYWGQGTLVTVSS
VL: DIQMTQSPSSLSASVGDRVTITCLASQTIGTWLAWYQQKPGKAPKLLIYVATSLADGVPSRFSGSGSGTDFTLTISSLQPEDFATYYCQQLVRIPWTFGQGTKVEIK
For B3, the “koff 감소 정도 (Fold) vs hz1E11” value with HER2-ECD-His 단백질 [1] is 3.2 fold.

B4: M3-LH-A3-3-2A5 (antibody, V domains shown)
VH: EVQLVESGGGLVQPGGSLRLSCAASGFTFSSYTMSWVRQAPGKGLEWVAYISNGGGSTYYPDTVKGRFTISRDNAKNSLYLQMNSLRAEDTAVYYCARHWGGTASFDYWGQGTLVTVSS
VL: DIQMTQSPSSLSASVGDRVTITCLASQTIGTWLAWYQQKPGKAPKLLIYVATSLADGVPSRFSGSGSGTDFTLTISSLQPEDFATYYCQQMFSTPWTFGQGTKVEIK
B4: the “koff 감소 정도 (Fold) vs hz1E11” value in the experiment with HER2-ECD-His 단백질 [1] came out at 3.6 fold.

B5: M1-LH-A3-3-1A6 (antibody, V domains shown)
VH: EVQLVESGGGLVQPGGSLRLSCAASGFTFSSYTMSWVRQAPGKGLEWVAYISNGGGSTYYPDTVKGRFTISRDNAKNSLYLQMNSLRAEDTAVYYCARNYGGTASFDYWGQGTLVTVSS
VL: DIQMTQSPSSLSASVGDRVTITCLASQTIGTWLAWYQQKPGKAPKLLIYVATSLADGVPSRFSGSGSGTDFTLTISSLQPEDFATYYCQQLVRTPWTFGQGTKVEIK
Regarding B5, the “koff 감소 정도 (Fold) vs hz1E11” value with HER2-ECD-His 단백질 [1] is 5.8 fold.

B6: M3-LH-A3-3-2F1 (antibody, V domains shown)
VH: EVQLVESGGGLVQPGGSLRLSCAASGFTFSSYTMSWVRQAPGKGLEWVAYISNGGGSTYYPDTVKGRFTISRDNAKNSLYLQMNSLRAEDTAVYYCARHLGGTASFDYWGQGTLVTVSS
VL: DIQMTQSPSSLSASVGDRVTITCLASQTIGTWLAWYQQKPGKAPKLLIYVATSLADGVPSRFSGSGSGTDFTLTISSLQPEDFATYYCQQNAYNPWTFGQGTKVEIK
notes: substitutions derived from the printed CDR3
As for B6, in the experiment with HER2-ECD-His 단백질 [1], the “koff 감소 정도 (Fold) vs hz1E11” value came out at 4.4 fold.

B7: hz1E11-133 (IgG) (antibody, V domains shown)
VH: EVQLVESGGGLVQPGGSLRLSCAASGFTFSSYTMSWVRQAPGKGLEWVAYISNGGGSTYYPDTVKGRFTISRDNAKNSLYLQMNSLRAEDTAVYYCARHLGGTASFDYWGQGTLVTVSS
VL: DIQMTQSPSSLSASVGDRVTITCLASQTIGTWLAWYQQKPGKAPKLLIYVATSLADGVPSRFSGSGSGTDFTLTISSLQPEDFATYYCQQNAYAPWTFGQGTKVEIK
notes: heavy variable region same as hz1E11
Take B7: in the experiment with HER2-ECD-His 단백질 [2], the “fold decrease of koff (kd) vs hz1E11” value stood at 8.4 fold and the “fold improvement of affinity (KD) vs hz1E11” value stood at 15 fold.

B8: M3-L-A1-3-1A12 (hz1E11-133), periplasmic extract (antibody, V domains shown)
VH: EVQLVESGGGLVQPGGSLRLSCAASGFTFSSYTMSWVRQAPGKGLEWVAYISNGGGSTYYPDTVKGRFTISRDNAKNSLYLQMNSLRAEDTAVYYCARHLGGTASFDYWGQGTLVTVSS
VL: DIQMTQSPSSLSASVGDRVTITCLASQTIGTWLAWYQQKPGKAPKLLIYVATSLADGVPSRFSGSGSGTDFTLTISSLQPEDFATYYCQQNAYAPWTFGQGTKVEIK
notes: Clone as expressed in bacteria (IPTG), periplasmic extract; LCDR3 QQNAYAPWT
B8: the “koff 감소 정도 (Fold) vs hz1E11” value with HER2-ECD-His 단백질 [1] is 30.4 fold.

B9: M3-L-A1-3-2C2 (antibody, V domains shown)
VH: EVQLVESGGGLVQPGGSLRLSCAASGFTFSSYTMSWVRQAPGKGLEWVAYISNGGGSTYYPDTVKGRFTISRDNAKNSLYLQMNSLRAEDTAVYYCARHLGGTASFDYWGQGTLVTVSS
VL: DIQMTQSPSSLSASVGDRVTITCLASQTIGTWLAWYQQKPGKAPKLLIYVATSLADGVPSRFSGSGSGTDFTLTISSLQPEDFATYYCQQLGFIPWTFGQGTKVEIK
notes: hz1E11 variant, periplasmic extract; substitutions derived from the printed CDR3 against hz1E11
For B9, in the experiment with HER2-ECD-His 단백질 [1], the “koff 감소 정도 (Fold) vs hz1E11” value was 2 fold.

B10: hz1E11-154 (IgG) (antibody, V domains shown)
VH: EVQLVESGGGLVQPGGSLRLSCAASGFTFSSYTMSWVRQAPGKGLEWVAYISNGGGSTYYPDTVKGRFTISRDNAKNSLYLQMNSLRAEDTAVYYCARHLGGTASFDYWGQGTLVTVSS
VL: DIQMTQSPSSLSASVGDRVTITCLASQTIGTWLAWYQQKPGKAPKLLIYVATSLADGVPSRFSGSGSGTDFTLTISSLQPEDFATYYCQQTAFSPWTFGQGTKVEIK
notes: as for B7
As for B10, in the experiment with HER2-ECD-His 단백질 [2], the “fold decrease of koff (kd) vs hz1E11” value came to 8.4 fold and the “fold improvement of affinity (KD) vs hz1E11” value stood at 20 fold.

B11: M3-L-A3-4-2E8 (antibody, V domains shown)
VH: EVQLVESGGGLVQPGGSLRLSCAASGFTFSSYTMSWVRQAPGKGLEWVAYISNGGGSTYYPDTVKGRFTISRDNAKNSLYLQMNSLRAEDTAVYYCARHLGGTASFDYWGQGTLVTVSS
VL: DIQMTQSPSSLSASVGDRVTITCLASQTIGTWLAWYQQKPGKAPKLLIYVATSLADGVPSRFSGSGSGTDFTLTISSLQPEDFATYYCQQIAYVPWTFGQGTKVEIK
notes: as for B9
On to B11, for which the “koff 감소 정도 (Fold) vs hz1E11” value with HER2-ECD-His 단백질 [1] turned out to be 5.9 fold.

B12: M3-L-A1-3-1F11 (hz1E11-154), periplasmic extract (antibody, V domains shown)
VH: EVQLVESGGGLVQPGGSLRLSCAASGFTFSSYTMSWVRQAPGKGLEWVAYISNGGGSTYYPDTVKGRFTISRDNAKNSLYLQMNSLRAEDTAVYYCARHLGGTASFDYWGQGTLVTVSS
VL: DIQMTQSPSSLSASVGDRVTITCLASQTIGTWLAWYQQKPGKAPKLLIYVATSLADGVPSRFSGSGSGTDFTLTISSLQPEDFATYYCQQTAFSPWTFGQGTKVEIK
notes: Clone as expressed in bacteria, periplasmic extract; LCDR3 QQTAFSPWT
As for B12, the “koff 감소 정도 (Fold) vs hz1E11” value with HER2-ECD-His 단백질 [1] was found to be 9.7 fold.
